Measurements: publication PMC7201923

Biological target: KPNA2 (UniProt P52292)
Experiment: anti-FLAG co-IP, immunoblot
Conditions: sites S97

Substance: IRF3 (from UniProt Q14653)
- binding against the reference: stronger
